Test results as given in the supplement of paper PMC10567573.
± gives the standard deviation.

Assay: protein stability index of a GFP-peptide fusion (GPS, HEK-293T) (PSI 1-6); higher = more stable
[1] = treatment: DMSO, c terminus: a fixed tail appended
[2] = treatment: MLN4924 1 uM, 8 h, c terminus: a fixed tail appended
[3] = treatment: DMSO, c terminus: native
[4] = treatment: MLN4924 1 uM, 8 h, c terminus: native
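Also: 24-mer peptide tiles fused after GFP, lentivirally expressed, FACS-sorted into six equal bins by GFP/DsRed ratio, decoded by Illumina sequencing, PSI is the read-weighted mean bin number.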

LLPTLYEIHSKTTAYSRLNETQPI [RNF180]
protein stability index [1]: 1.96 ± 0.15
protein stability index [2]: 2.15 ± 0.41

LLQIIDTTLLKCYLHTNVALVAPL [VPS39]
protein stability index [1]: 3.13 ± 0.49
protein stability index [2]: 3.38 ± 0.21

LMGPSRMSLFSLYMVQDQHECILP [M1AP]
protein stability index [1]: 2.58 ± 0.3
protein stability index [2]: 2.33 ± 0.24

LNCPFCGARLGGFNFVSTPKCSCG [RNF180]
protein stability index [1]: 2.25 ± 0.51
protein stability index [2]: 3.28 ± 0.38

LNECVGTAYWALAGSIGGLFFAVG [SLC22A15]
protein stability index [1]: 3.19 ± 1.4
protein stability index [2]: 3.72 ± 0.21

LNIYKTLKTHLIEKGILQPTLKV [CDS1]
protein stability index [3]: 2.71 ± 0.94
protein stability index [4]: 2.86 ± 0.8

LNLNYNCISDELLENLCENASTLR [FBXO39]
protein stability index [1]: 3.28 ± 0.16
protein stability index [2]: 3.29 ± 0.21

LNSPPGPHSAKTEEHTTILRPSYT [CDC14A]
protein stability index [1]: 4.41 ± 0.61
protein stability index [2]: 4.651 ± 0.039

LPGNTTEATPRSLRASGSLCGPHA
protein stability index [1]: 4.46 ± 0.38
protein stability index [2]: 4.28 ± 0.3

LPLDDQVALLRAHAGEHLLLGATK [HNF4A]
protein stability index [1]: 3.6 ± 0.19
protein stability index [2]: 3.63 ± 0.19

LPNASADSLGGSQEMVQRPQPHRN [TRAF3IP2]
protein stability index [1]: 5.25 ± 0.13
protein stability index [2]: 5.26 ± 0.16

LPPSMERGYPPPRDSYSSSSRGAP [RBMX]
protein stability index [1]: 4.5 ± 0.17
protein stability index [2]: 4.53 ± 0.2

LPSLRTVSSSVIEQLFFVRLVGKT [NR2F2]
protein stability index [1]: 2.44 ± 0.37
protein stability index [2]: 2.28 ± 0.071

LPTTKMAQTNPTPGSLGPWKITIY [CRYBA1]
protein stability index [1]: 2.71 ± 0.48
protein stability index [2]: 2.19 ± 0.49

LPWSSVLRVWDMFFCEGVKIIFRV [TBC1D10A]
protein stability index [1]: 2.96 ± 0.72
protein stability index [2]: 3.34 ± 0.86

LQGDLKTLMGKLKLKNTVTIQQEK [SASS6]
protein stability index [2]: 2.81 ± 0.25

LQMKLEKLREKERKKEAKRKISSL [FAM50A]
protein stability index [1]: 3.71 ± 0.45
protein stability index [2]: 3.98 ± 0.53

LQNFSSSWSDGMAFCALVHSFFPD [SMTNL2]
protein stability index [1]: 2.6 ± 0.39
protein stability index [2]: 2.42 ± 0.44

LREERGHPLHPRHRKAVHLRTRGR [C6orf223]
protein stability index [1]: 4.08 ± 0.23
protein stability index [2]: 4.06 ± 0.36

LRFFKEKDGKAFHPTYEEKLKLVA [ACBD3]
protein stability index [1]: 2.53 ± 0.26
protein stability index [2]: 2.5 ± 0.55

LRLENNHCHIEESEHVLKKAHKYS [VPS39]
protein stability index [1]: 2.87 ± 0.37
protein stability index [2]: 3.31 ± 0.45

LRQFFKQLPSPPFLPAAGTADCR [CEBPD]
protein stability index [3]: 1.89 ± 0.67
protein stability index [4]: 2.16 ± 0.28

LSLGLATVDIQNPDITSSRYRGLP [WAS]
protein stability index [1]: 2.96 ± 0.25
protein stability index [2]: 3.12 ± 0.22

LSPDIMKDAYVQKLVKVCNGHDCW [TENT5D]
protein stability index [1]: 2.41 ± 0.72
protein stability index [2]: 2.35 ± 0.17

LSRLSLMAMPNGFHEDGPQGPGGD [PSD2]
protein stability index [1]: 4.89 ± 0.15
protein stability index [2]: 4.62 ± 0.13

LSRYQNELAGVDTELLAERFYYQA [SMG5]
protein stability index [1]: 2.7 ± 0.51
protein stability index [2]: 2.81 ± 0.43

LSSRWKNWWIRGILTLTMISLFFL [CDS1]
protein stability index [1]: 2.54 ± 0.37
protein stability index [2]: 2.17 ± 0.36

LTAQGQQFHCHKAVLASCSQYFRS [KLHL14]
protein stability index [1]: 2.27 ± 0.25
protein stability index [2]: 2.37 ± 0.33

LTHLVKLDLSKNKLQQLPADFGRL [LRRC59]
protein stability index [1]: 2.65 ± 0.19
protein stability index [2]: 2.7 ± 0.17

LTKLREMGREKCHQYWPAERSARY [PTPRD]
protein stability index [1]: 2.33 ± 0.21
protein stability index [2]: 2.9 ± 0.45

LTLSQYILLDPILMFFIMAAMLSM [POMT2]
protein stability index [1]: 3.29 ± 0.56
protein stability index [2]: 2.95 ± 0.69

LTSELDPEKEQEIETIKIIETEDQ [MIA2]
protein stability index [1]: 4.84 ± 0.051
protein stability index [2]: 5.46 ± 0.33

LVDVACKHLTDTSHGVRNKCLQLL [INTS4]
protein stability index [1]: 2.18 ± 0.49
protein stability index [2]: 2.46 ± 0.17

LVKHWYQNCKKKLGKLPPQYALEL [OAS1]
protein stability index [1]: 2.43 ± 0.83
protein stability index [2]: 2.51 ± 0.63

LVKKVEEDEAGGRFVAFSGEGQSL [UFD1]
protein stability index [1]: 4.71 ± 0.14
protein stability index [2]: 4.81 ± 0.18

LVLEQFLTILPTEIETWVREHCPE [ZNF449]
protein stability index [1]: 2.2 ± 0.47
protein stability index [2]: 2.35 ± 0.47

LVTLNDMKAKQEALVKEREKQLAK [FAM50A]
protein stability index [1]: 4.23 ± 0.24
protein stability index [2]: 4.25 ± 0.45

LWEAEDRQNVPRKVPNHYIAIPEW [CPXM2]
protein stability index [1]: 3 ± 0.31
protein stability index [2]: 3.02 ± 0.32

LWRSRVVPDREEGGSGGGGGGDED [SMAD6]
protein stability index [1]: 5.36 ± 0.29
protein stability index [2]: 5.45 ± 0.14

LYKEELEQTYHAKLENARLSSEMN [LMNB1]
protein stability index [1]: 3.21 ± 0.64
protein stability index [2]: 3.62 ± 0.25

MAETSLLEAGASAASTAAALENLQ [TRIM39]
protein stability index [1]: 4.59 ± 0.32
protein stability index [2]: 4.4 ± 0.29

MAGRLMIRKLVAEKLNIPWNHIRL [AASDHPPT]
protein stability index [1]: 2.4 ± 0.94
protein stability index [2]: 2.12 ± 0.34

MAPLQPSTSRAHKLPSRRQPGLLH [FAM189A2]
protein stability index [1]: 3.62 ± 0.18
protein stability index [2]: 3.72 ± 0.28

MAQSRDGGNPFAEPSELDNPFQDP [SCAMP3]
protein stability index [1]: 5.19 ± 0.17
protein stability index [2]: 5.19 ± 0.23

MASCPDSDNSWVLAGSESLPVETL [PBXIP1]
protein stability index [1]: 4.31 ± 0.27
protein stability index [2]: 4.41 ± 0.22

MASSPIQPRKGGADWLGLKDEDLD [FBF1]
protein stability index [1]: 5.12 ± 0.37
protein stability index [2]: 5.07 ± 0.26

MAVTGWLESLRTAQKTALLQDGRR [DPCD]
protein stability index [1]: 2.51 ± 0.14
protein stability index [2]: 2.68 ± 0.17

MCEQCDVFYCDPCRLRCHPPRGPL [TRIM9]
protein stability index [1]: 2.8 ± 0.32
protein stability index [2]: 2.72 ± 0.35

MDIGQPKDFLTGMCLFLQSLRQKQ [GMPPB]
protein stability index [1]: 2.46 ± 0.11
protein stability index [2]: 2.72 ± 0.39

MDRSLVQDAPLSDCTETIEGLELT [ADD1]
protein stability index [1]: 5.27 ± 0.28
protein stability index [2]: 5.32 ± 0.19

MDTAMEVVKFVNFLLVNGFQTAID [TRAF3IP2]
protein stability index [1]: 2.73 ± 1.1
protein stability index [2]: 2.79 ± 0.086

MEDSQETSPSSNNSSEELSSALHL [NECAB1]
protein stability index [1]: 5.57 ± 0.18
protein stability index [2]: 5.55 ± 0.18

MEKGPVRAPAEKPRGARCSNGFPE [GCH1]
protein stability index [1]: 4.46 ± 0.29
protein stability index [2]: 4.58 ± 0.25

MEPGDIIGVAGNHWDGYSKGVNRK [FUT8]
protein stability index [1]: 4.4 ± 0.22
protein stability index [2]: 4.6 ± 0.35

METSPSEEDSFYRSSYPQQQGLGA [TBX5]
protein stability index [1]: 4.37 ± 0.073
protein stability index [2]: 4.47 ± 0.17

MGSAADVRFSLGTTTHAPPGVHRR [PPFIA4]
protein stability index [1]: 4.26 ± 0.3
protein stability index [2]: 4.51 ± 0.39

MKNKNNVTEFILLGLTQNPEGQKV [OR4A15]
protein stability index [1]: 2.44 ± 0.31
protein stability index [2]: 2.99 ± 0.11

MLKFLAKGEVPKGSCEDEPMDSTM [ATE1]
protein stability index [1]: 4.22 ± 0.3
protein stability index [2]: 4.36 ± 0.092

MLWVQRKRRRKETSECPSDKDKSP [C10orf62]
protein stability index [1]: 3.2 ± 0.42
protein stability index [2]: 3.66 ± 0.43

MNAVGSPEGQELQKLGSGAWDNPA [PKD2L1]
protein stability index [1]: 4.59 ± 0.2
protein stability index [2]: 4.35 ± 0.27

MPEFSSDSTMRILSNLVQHILKKY [RTP4]
protein stability index [1]: 2.2 ± 0.39
protein stability index [2]: 2.52 ± 0.31

MPLKWKTSSPAIWKFPVPVLKTSR [KLHL13]
protein stability index [1]: 2.46 ± 0.052
protein stability index [2]: 2.47 ± 0.44

MPRQISRQSSVTESTLYPNPYHQP [TPRG1]
protein stability index [1]: 3.73 ± 0.34
protein stability index [2]: 3.7 ± 0.25

MQERVQRLEAARLSLEEELSRVKA [LRRC45]
protein stability index [1]: 4.25 ± 0.5
protein stability index [2]: 4.48 ± 0.27

MRHVEKMCKADLSRNFIERNHMEN [TRIM29]
protein stability index [1]: 3.05 ± 0.16
protein stability index [2]: 3.1 ± 0.12

MRSAAVLALLLCAGQVTALPVNSP [CHGA]
protein stability index [1]: 3.21 ± 0.45
protein stability index [2]: 2.83 ± 0.57

MSASLNYKSFSKEQQTMDNLEKQL [TRIM55]
protein stability index [1]: 4.71 ± 0.23
protein stability index [2]: 4.47 ± 0.14

MSLKCLAARAVRANDINYQDQIPR [FEM1B]
protein stability index [1]: 3.49 ± 0.34
protein stability index [2]: 3.52 ± 0.17

MSQGPPTGESSEPEAKVLHTKRLY [SMG5]
protein stability index [1]: 4.81 ± 0.24
protein stability index [2]: 4.94 ± 0.15

MTKTVQYQNELHKFLIWDTAGQER [RAB22A]
protein stability index [1]: 3.03 ± 0.23
protein stability index [2]: 3.14 ± 0.17

MVTCKSEFYHDEFKRWIYLNDQNL [GAN]
protein stability index [1]: 2.44 ± 0.43
protein stability index [2]: 2.25 ± 0.48

NAAKTCPTMPALFSDHTFRHYAYL [INTS4]
protein stability index [1]: 2.03 ± 0.42
protein stability index [2]: 2.13 ± 0.29

NALKDARAKLDELEGALHQAKEEL [KRT71]
protein stability index [1]: 5.06 ± 0.38
protein stability index [2]: 4.97 ± 0.095

NATLTQYQLLATHVPTVWAIDQYR [RHOBTB2]
protein stability index [1]: 2.61 ± 0.58
protein stability index [2]: 2.48 ± 0.31

NCLTGEGEDTRLSASEMKQLIDNI [CIB1]
protein stability index [1]: 4.67 ± 0.18
protein stability index [2]: 4.74 ± 0.32

NCVLSSSPNPFPEISRGEYLYTYD [ZNF8]
protein stability index [1]: 2.76 ± 0.42
protein stability index [2]: 3.01 ± 0.3

NDVKHHRWFRSVDWEAVPQRKLKP [PRKX]
protein stability index [1]: 3.65 ± 0.19
protein stability index [2]: 3.6 ± 0.24

NETKSQAFVSNSPKLFCPKNRSFD [PLD5]
protein stability index [1]: 4.21 ± 0.23
protein stability index [2]: 3.86 ± 0.54

NFEEMRALLDSLPPPVESELALFQ [KLHL14]
protein stability index [1]: 3.46 ± 0.45
protein stability index [2]: 3.91 ± 0.28

NFGLRLVVQRCSGQKWMIRNWIKH [GALNT9]
protein stability index [1]: 2.67 ± 0.32
protein stability index [2]: 2.06 ± 0.59

NFRDLVRDLEKQKEEVRAALEQRE [TRIM29]
protein stability index [1]: 4.54 ± 0.11
protein stability index [2]: 4.43 ± 0.21

NGAKELWFFLQSELKKLKNLEGNE [FUT8]
protein stability index [1]: 2.45 ± 0.47
protein stability index [2]: 2.48 ± 0.33

NGEYTLMPSPTDVVLPGAVSLRYS [ADAMTS4]
protein stability index [1]: 3.23 ± 0.34
protein stability index [2]: 3.28 ± 0.41

NGGVVQVGELLPCKICGRTFFPVA [ZC2HC1A]
protein stability index [1]: 2.42 ± 0.091
protein stability index [2]: 2.48 ± 0.47

NGNGKNGGLEHVPSSSSIHNGDME [BNIP3L]
protein stability index [1]: 5.28 ± 0.2
protein stability index [2]: 5.28 ± 0.24

NGWTCLHWACKRNHGQVVSYLLKS [ANKRD40]
protein stability index [1]: 2.72 ± 0.46
protein stability index [2]: 2.29 ± 0.43

NILLDKHRMVVKIGDFGISKILSS [NEK8]
protein stability index [1]: 2.19 ± 0.15
protein stability index [2]: 2.09 ± 0.17

NIRPADSRWVRDPRYREDPCKQCK [FBXO34]
protein stability index [1]: 4.13 ± 0.36
protein stability index [2]: 4.28 ± 0.13

NKTWREQYLRLPDAPEQRLRVMTT [ELOA2]
protein stability index [1]: 3.26 ± 0.31
protein stability index [2]: 3.19 ± 0.48
